In article PMC11882444 (2025) one finds Kd data, which are given here for one molecule.

Broadly, the Kd is a measure of binding affinity in units of concentration. High values mean weaker binding, low ones tighter binding.

The target in the assay is LHC (LSD1-HDAC-CoREST complex) (Homo sapiens, UniProt O60341, UM171 and InsP6 present). The assay is described as follows: dose-response titration of fluorescein-LHC.

B1: KBTBD4 (protein)
chain: MKGGNADSWQREKLASMESPEEPGASMDENYFVNYTFKDRSHSGRVAQGIMKLCLEEELFADVTISVEGREFQLHRLVLSAQSCFFRSMFTSNLKEAHNRVIVLQDVSESVFQLLVDYIYHGTVKLRAEELQEIYEVSDMYQLTSLFEECSRFLARTVQVGNCLQVMWLADRHSDPELYTAAKHCAKTHLAQLQNTEEFLHLPHRLLTDIISDGVPCSQNPTEAIEAWINFNKEEREAFAESLRTSLKEIGENVHIYLIGKESSRTHSLAVSLHCAEDDSISVSGQNSLCHQITAACKHGGDLYVVGGSIPRRMWKCNNATVDWEWCAPLPRDRLQHTLVSVPGKDAIYSLGGKTLQDTLSNAVIYYRVGDNVWTETTQLEVAVSGAAGANLNGIIYLLGGEENDLDFFTKPSRLIQCFDTETDKCHVKPYVLPFAGRMHAAVHKDLVFIVAEGDSLVCYNPLLDSFTRLCLPEAWSSAPSLWKIASCNGSIYVFRDRYKKGDANTYKLDPATSAVTVTRGIKVLLTNLQFVLA
B1 registered a Kd of 13 nM.
